± gives the standard deviation of the averaged measurements.
Experiments:
Saccharomyces cerevisiae [1] = assay: protein stability index of tFT-peptide fusion (C-terminal peptide) (PSI (0-1 scale)); higher = more stable (slower turnover)
Method: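 MPS profiling in S. cerevisiae of the tFT-X12 degron library: putative degron peptides plus stable controls, 12 aa, fused to the C-terminus of a sfGFP-mCherry timer. Cells are FACS-sorted into 8 mCherry/sfGFP bins and deep-sequenced. PSI runs from 0 (unstable) to 1 (stable). Backgrounds are wild type, das1Δ and doa10Δ at 30 °C, and wild type, das1Δ, cdc34-1 and cdc53-1 at 37 °C; 2-3 technical replicates each.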

Saccharomyces cerevisiae [2] = assay: as above; conditions: genetic background: wild type; temperature: 30 C
[3] = genetic background: cdc34-1, temperature: 37 C
[4] = genetic background: cdc53-1, temperature: 37 C
[5] = genetic background: das1 deletion, temperature: 30 C
[6] = genetic background: das1 deletion, temperature: 37 C
[7] = genetic background: doa10 deletion, temperature: 30 C
[8] = genetic background: wild type, temperature: 30 C
[9] = genetic background: wild type, temperature: 37 C
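Note: PSI is a weighted mean of sequencing reads over stability bins, variants kept only with over 10 reads, mCherry proximal and sfGFP distal, peptide attached via GGGS linker.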

Row | Sequence | protein stability index (Saccharomyces cerevisiae [1]; [3]) | protein stability index (Saccharomyces cerevisiae [1]; [4]) | protein stability index (Saccharomyces cerevisiae [1]; [5]) | protein stability index (Saccharomyces cerevisiae [1]; [6]) | protein stability index (Saccharomyces cerevisiae [1]; [7]) | protein stability index (Saccharomyces cerevisiae [1]; [8]) | protein stability index (Saccharomyces cerevisiae [1]; [9]) | protein stability index (Saccharomyces cerevisiae [2])
1 | LLCLCSLPVFAS | 0.317 ± 0.014 | 0.319 ± 0.029 | 0.26 ± 0.046 | 0.4118 ± 0.0028 | 0.223 ± 0.009 | 0.27 ± 0.018 | 0.368 ± 0.0076 | 0.356 ± 0.016
2 | LLFLLSPFNFAV | 0.651 ± 0.035 | 0.726 ± 0.0084 | 0.63 ± 0.022 | 0.737 ± 0.0093 | 0.2535 ± 0.0025 | 0.303 ± 0.017 | 0.524 ± 0.03 | 0.328 ± 0.07
3 | LLFTFSLSFFFR | 0.405 ± 0.036 | 0.467 ± 0.0087 | 0.445 ± 0.048 | 0.438 ± 0.0076 | 0.458 ± 0.018 | 0.42 ± 0.022 | 0.45 ± 0.022 | 0.445 ± 0.014
4 | LLLHFMFSIFWF | 0.3811 ± 0.00039 | 0.375 ± 0.032 | 0.327 ± 0.034 | 0.4583 ± 0.0021 | 0.378 ± 0.011 | 0.324 ± 0.016 | 0.42 ± 0.011 | 0.378 ± 0.023
5 | LLMWVLFDCHYS | 0.39 ± 0.017 | 0.542 ± 0.034 | 0.318 ± 0.035 | 0.552 ± 0.011 | 0.306 ± 0.01 | 0.322 ± 0.023 | 0.535 ± 0.013 | 0.396 ± 0.012
6 | LLPTSVFLPSLF | 0.6907 ± 0.0038 | 0.7726 ± 0.0059 | 0.663 ± 0.012 | 0.768 ± 0.014 | 0.282 ± 0.0082 | 0.331 ± 0.021 | 0.578 ± 0.018 | 0.489 ± 0.0069
7 | LLRIFLPLLYLL | 0.203 ± 0.062 | 0.199 ± 0.011 | 0.329 ± 0.037 | 0.387 ± 0.016 | 0.218 ± 0.0076 | 0.131 ± 0.021 | 0.2 ± 0.00044 | 0.194 ± 0.019
8 | LLSFYFVLAYMV | 0.357 ± 0.034 | 0.393 ± 0.026 | 0.32 ± 0.035 | 0.4765 ± 0.00078 | 0.197 ± 0.024 | 0.179 ± 0.02 | 0.3 ± 0.0065 | 0.28 ± 0.056
9 | LLSYMVSLVVYL | 0.127 ± 0.04 | 0.231 ± 0.03 | 0.175 ± 0.032 | 0.338 ± 0.024 | 0.16 ± 0.028 | 0.166 ± 0.031 | 0.291 ± 0.004 | 0.295 ± 0.0062
10 | LLYYQVFKTRRL | 0.674 ± 0.021 | 0.686 ± 0.037 | 0.63 ± 0.026 | 0.696 ± 0.034 | 0.3565 ± 0.0012 | 0.384 ± 0.022 | 0.5958 ± 0.0036 | 0.406 ± 0.25
11 | LNQRGKRKYLIM | 0.711 ± 0.058 | 0.751 ± 0.054 | 0.656 ± 0.038 | 0.723 ± 0.016 | 0.372 ± 0.012 | 0.412 ± 0.024 | 0.561 ± 0.034 | 0.452 ± 0.015
12 | LNTVALIRIVVS | 0.0601 ± 0.033 | 0.132 ± 0.015 | 0.18 ± 0.021 | 0.234 ± 0.0055 | 0.125 ± 0.015 | 0.137 ± 0.036 | 0.19 ± 0.008 | 0.236 ± 0.006
13 | LPILFPAALRLY | 0.552 ± 0.0097 | 0.577 ± 0.028 | 0.521 ± 0.025 | 0.604 ± 0.01 | 0.267 ± 0.013 | 0.285 ± 0.026 | 0.455 ± 0.029 | 0.44 ± 0.02
14 | LPPPYSPRLFHN | 0.552 ± 0.065 | 0.7103 ± 0.0065 | 0.699 ± 0.014 | 0.755 ± 0.022 | 0.146 ± 0.016 | 0.166 ± 0.016 | 0.265 ± 0.01 | 0.241 ± 0.1
15 | LPTVSRPGALIC | 0.562 ± 0.016 | 0.689 ± 0.032 | 0.626 ± 0.033 | 0.69 ± 0.011 | 0.144 ± 0.0049 | 0.192 ± 0.02 | 0.34 ± 0.038 | 0.253 ± 0.013
16 | LRCRAATSRTVS | 0.69 ± 0.029 | 0.738 ± 0.015 | 0.6731 ± 0.002 | 0.726 ± 0.03 | 0.391 ± 0.015 | 0.446 ± 0.025 | 0.643 ± 0.0087 | 0.504 ± 0.04
17 | LRNYKCLRLLIC | 0.293 ± 0.009 | 0.476 ± 0.0082 | 0.394 ± 0.028 | 0.545 ± 0.022 | 0.0736 ± 0.0054 | 0.0688 ± 0.012 | 0.0753 ± 0.012 | 0.0682 ± 0.096

Row | Sequence | protein stability index (Saccharomyces cerevisiae [1]; [3]) | protein stability index (Saccharomyces cerevisiae [1]; [4]) | protein stability index (Saccharomyces cerevisiae [1]; [5]) | protein stability index (Saccharomyces cerevisiae [1]; [6]) | protein stability index (Saccharomyces cerevisiae [1]; [7]) | protein stability index (Saccharomyces cerevisiae [1]; [8]) | protein stability index (Saccharomyces cerevisiae [1]; [9]) | protein stability index (Saccharomyces cerevisiae [2])
18 | LRPTFLLLFRPL | 0.292 ± 0.022 | 0.283 ± 0.037 | 0.377 ± 0.032 | 0.474 ± 0.011 | 0.618 ± 0.004 | 0.407 ± 0.017 | 0.4302 ± 0.0023 | 0.493 ± 0.096
19 | LRSLLIIYLLIF | 0.2561 ± 0.0023 | 0.292 ± 0.025 | 0.253 ± 0.038 | 0.404 ± 0.0084 | 0.203 ± 0.0043 | 0.192 ± 0.0044 | 0.31 ± 0.012 | 0.279 ± 0.039
20 | LSACYSRYVFVS | 0.398 ± 0.039 | 0.553 ± 0.038 | 0.472 ± 0.016 | 0.60517 ± 0.00057 | 0.0584 ± 0.017 | 0.093 ± 0.023 | 0.115 ± 0.012 | 0.135 ± 0.0089
21 | LSASFYFVFFSN | 0.56 ± 0.013 | 0.6731 ± 0.0018 | 0.506 ± 0.023 | 0.6287 ± 0.006 | 0.155 ± 0.032 | 0.188 ± 0.0085 | 0.383 ± 0.021 | 0.292 ± 0.043
22 | LSILLFVQFFPP | 0.317 ± 0.023 | 0.371 ± 0.0032 | 0.27 ± 0.021 | 0.4113 ± 0.00046 | 0.24 ± 0.0013 | 0.253 ± 0.012 | 0.384 ± 0.0082 | 0.305 ± 0.0053
23 | LSLPTPLPSPPA | 0.656 ± 0.044 | 0.695 ± 0.041 | 0.457 ± 0.027 | 0.629 ± 0.015 | 0.449 ± 0.019 | 0.456 ± 0.017 | 0.591 ± 0.0092 | 0.48 ± 0.022
24 | LSPLSPLLFRLI | 0.482 ± 0.04 | 0.509 ± 0.012 | 0.516 ± 0.055 | 0.62 ± 0.018 | 0.249 ± 0.0059 | 0.226 ± 0.013 | 0.37479 ± 6.6e-05 | 0.296 ± 0.016
25 | LSRLIFKVSVLM | 0.57 ± 0.0078 | 0.602 ± 0.0096 | 0.504 ± 0.026 | 0.5999 ± 0.0032 | 0.237 ± 0.032 | 0.231 ± 0.025 | 0.416 ± 0.038 | 0.445 ± 0.015
26 | LSRRFSLALFWT | 0.57 ± 0.016 | 0.683 ± 0.051 | 0.654 ± 0.0085 | 0.707 ± 0.026 | 0.1762 ± 0.0015 | 0.197 ± 0.031 | 0.317 ± 0.0078 | 0.279 ± 0.012
27 | LSSRGGRCRRLV | 0.714 ± 0.059 | 0.727 ± 0.028 | 0.652 ± 0.016 | 0.7555 ± 0.0039 | 0.321 ± 0.0092 | 0.37 ± 0.013 | 0.588 ± 0.017 | 0.481 ± 0.037
28 | LVFAFFLLSFFI | 0.478 ± 0.035 | 0.554 ± 0.015 | 0.478 ± 0.047 | 0.549 ± 0.00087 | 0.481 ± 0.025 | 0.466 ± 0.027 | 0.541 ± 0.02 | 0.425 ± 0.0078
29 | LVFSFFFLFFFM | 0.449 ± 0.053 | 0.47 ± 0.029 | 0.375 ± 0.03 | 0.46047 ± 0.00043 | 0.375 ± 0.027 | 0.287 ± 0.05 | 0.442 ± 0.11 | 0.394 ± 0.044
30 | LVLFYLWSSVWA | 0.4 ± 0.014 | 0.445 ± 0.0055 | 0.29 ± 0.032 | 0.4726 ± 0.0018 | 0.251 ± 0.01 | 0.279 ± 0.034 | 0.441 ± 0.0095 | 0.3819 ± 0.0021
31 | LVLLIQKFLTDK | 0.7442 ± 0.0063 | 0.7187 ± 0.0016 | 0.609 ± 0.024 | 0.695 ± 0.079 | 0.59 ± 0.017 | 0.617 ± 0.052 | 0.675 ± 0.015 | 0.553 ± 0.086
32 | LVLSFVMLVSGH | 0.183 ± 0.014 | 0.313 ± 0.02 | 0.202 ± 0.013 | 0.384 ± 0.031 | 0.149 ± 0.0053 | 0.185 ± 0.024 | 0.343 ± 0.024 | 0.289 ± 0.012
33 | LVPVWVGLRVLF | 0.422 ± 0.021 | 0.429 ± 0.0053 | 0.354 ± 0.042 | 0.537 ± 0.015 | 0.347 ± 0.018 | 0.328 ± 0.022 | 0.506 ± 0.014 | 0.421 ± 0.065
